# Assays:
# human beta-Klotho = target: T1, human beta-Klotho (Homo sapiens, UniProt Q86Z14); experiment: SPR analysis of the active fraction of stressed antibodies; type: binding; details: 21 days
# T1 sequence (Q86Z14 1-1044): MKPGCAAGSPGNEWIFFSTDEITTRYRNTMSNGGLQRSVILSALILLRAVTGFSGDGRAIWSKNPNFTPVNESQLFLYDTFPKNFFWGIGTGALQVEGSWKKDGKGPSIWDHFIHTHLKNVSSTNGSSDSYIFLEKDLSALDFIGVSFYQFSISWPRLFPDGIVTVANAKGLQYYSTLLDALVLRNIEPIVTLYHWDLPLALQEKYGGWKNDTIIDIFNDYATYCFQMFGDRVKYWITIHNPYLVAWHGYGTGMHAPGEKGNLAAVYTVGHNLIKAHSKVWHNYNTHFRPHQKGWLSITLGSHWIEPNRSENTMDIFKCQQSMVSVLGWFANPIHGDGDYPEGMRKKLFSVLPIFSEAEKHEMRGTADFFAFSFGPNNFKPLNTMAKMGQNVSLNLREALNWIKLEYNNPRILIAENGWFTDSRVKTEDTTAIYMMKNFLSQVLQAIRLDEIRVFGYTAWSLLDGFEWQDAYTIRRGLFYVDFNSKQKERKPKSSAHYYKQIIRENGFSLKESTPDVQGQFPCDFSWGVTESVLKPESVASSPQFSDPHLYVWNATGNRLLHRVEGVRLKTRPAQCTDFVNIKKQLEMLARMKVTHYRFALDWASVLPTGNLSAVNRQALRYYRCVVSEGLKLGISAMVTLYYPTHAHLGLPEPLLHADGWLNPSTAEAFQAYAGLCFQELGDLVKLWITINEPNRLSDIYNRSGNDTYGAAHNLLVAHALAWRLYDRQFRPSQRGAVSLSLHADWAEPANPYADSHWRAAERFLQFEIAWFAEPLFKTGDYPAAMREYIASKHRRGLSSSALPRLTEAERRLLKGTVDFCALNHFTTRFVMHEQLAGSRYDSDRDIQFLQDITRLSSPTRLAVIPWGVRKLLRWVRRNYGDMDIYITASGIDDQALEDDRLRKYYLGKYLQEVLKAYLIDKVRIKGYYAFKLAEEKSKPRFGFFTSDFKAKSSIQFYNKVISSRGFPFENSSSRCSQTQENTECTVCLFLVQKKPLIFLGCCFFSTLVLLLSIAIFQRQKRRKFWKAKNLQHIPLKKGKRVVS
# Procedure: Analysis of the active fraction of stressed antibodies was performed by SPR using the same Fc capture assay set up as described above for the affinity determination. In this case the association and dissociation times for human beta-Klotho were set to 240 sec and 300 sec, respectively. The active fraction of the samples was calculated as the ratio of binding signal for human beta-Klotho and the Fc capture signal of the antibody, normalized to the active fraction of the unstressed control samples. Mean values from three experiments were calculated.
# [1] = Size-exclusion chromatography (SEC); type: physicochemical
# Procedure: Analytical SEC was performed using a BioSECcurity instrument (PSS Polymer) with an AdvanceBio 300 column (4.6 mm×300 mm) and AdvanceBio 300 guard column (Agilent Technologies) at room temperature. The analysis was run at a flow rate of 0.5 mL/min using 2× concentrated D-PBS buffer (Thermo Fisher Scientific) with detection at 280 nm. 10 μL of protein sample (at 1 mg/mL) were applied onto the column. Data evaluation was performed using WinGPC software v8.1 (PSS Polymer). For estimation of the molecular weight, the SEC column was calibrated with the AdvanceBio SEC 300 Å Protein Standard (Agilent Technologies).
# [2] = Hydrophobic interaction chromatography (HIC); type: physicochemical
# Procedure: The analysis was run at a flow rate of 1 mL/min with detection at 280 nm. 5 μg of undiluted protein sample were applied onto the column. Gradient elution was from 15% B to 85% B in 7 min followed by 1 min to 100% B, then 1 min to 15% B and then 3 minutes equilibration at 15% B. Buffer A was composed of 1.5 mol/L ammonium sulfate, 25 mmol/L sodium phosphate pH 7.0. Buffer B was composed of 25 mmol/L sodium phosphate pH 7.0. Data evaluation was performed either using LabSolutions software v5.85 (Shimadzu) or Chromeleon 7 software (Thermo Fisher Scientific).
# [3] = Nano differential scanning fluorimetry (nanoDSF), Tonset and Tm; type: physicochemical
# Procedure: Onset temperatures (Tonset) and melting points (Tm) of protein denaturation were determined using nano differential scanning fluorimetry (nanoDSF). Samples were diluted in formulation buffer to a final concentration of 0.5 mg/mL and loaded into nanoDSF capillaries in duplicates (Nanotemper Technologies). All measurements were done using a Prometheus NT.plex nanoDSF device (Nanotemper Technologies). Heating rate was 1° C. per minute from 20° C. to 95° C. Data were recorded using PR.ThermControl Software v2.3.1 (Nanotemper Technologies) and analyzed using PR.Stability Analysis Software v1.0.3 (Nanotemper Technologies).
# [4] = Capillary gel electrophoresis (cGE); type: physicochemical
# Procedure: Capillary Gel Electrophoresis (cGE) Purity and size heterogeneity of the samples was determined by capillary gel electrophoresis (cGE) using a CES18000 instrument (SCIEX) equipped with a pre-assembled fused silica capillary (50 μm×300 mm, SCIEX). Protein samples at 1 mg/ml were prepared using the IgG purity heterogeneity Kit (SCIEX) under non-reducing conditions according to the manufacturer's specifications. Samples were electrophoretically separated for 35 minutes at 25° C. and the absorbance at 220 nm was recorded by a photo diode array (PDA) detector. The data were analyzed using 32 Karat Software (SCIEX).
Substance,"SPR rel. active fraction (human beta-Klotho; pH 5, 40° C.) [%]","SPR rel. active fraction (human beta-Klotho; pH 6, 40° C.) [%]","SPR rel. active fraction (human beta-Klotho; pH 8, 40° C.) [%]","SEC % HMW ([1]; pH 5, 40° C., d 21) [%]","SEC % LMW ([1]; pH 5, 40° C., d 21) [%]","SEC % HMW ([1]; pH 5, d 0) [%]","SEC % LMW ([1]; pH 5, d 0) [%]","SEC % HMW ([1]; pH 6, 40° C., d 21) [%]","SEC % LMW ([1]; pH 6, 40° C., d 21) [%]","SEC % HMW ([1]; pH 6, d 0) [%]","SEC % LMW ([1]; pH 6, d 0) [%]","SEC % HMW ([1]; pH 8, 40° C., d 21) [%]","SEC % LMW ([1]; pH 8, 40° C., d 21) [%]","SEC % HMW ([1]; pH 8, d 0) [%]","SEC % LMW ([1]; pH 8, d 0) [%]",Hydrophobic variance HIC Number of peaks [2],"HIC Number of peaks ([2]; pH 5, 40° C., d 21)","HIC Number of peaks ([2]; pH 5, d 0)","HIC Number of peaks ([2]; pH 6, 40° C., d 21)","HIC Number of peaks ([2]; pH 6, d 0)",also measured
"Ab0430: IgG1 NNAS; 16H7 VL (N25S, D49E, D50E, D91E, N93E); 16H7 VH (M34V, I83T, D109E); HC SEQ ID NO: 43, LC SEQ ID NO: 50",94,92,75,1,2,1,0,0,2,1,0,1,4,2,0,1,1,1,1,1,"HIC Number of peaks ([2]; pH 8, 40° C., d 21): 1; HIC Number of peaks ([2]; pH 8, d 0): 1; Thermal stability DSF Tm [3]: 62 °C; Thermal stability DSF Tonset [3]: 45 °C; DSF Tm ([3]; pH 5, 40° C., d 21): 62 °C; DSF Tonset ([3]; pH 5, 40° C., d 21): 46 °C; DSF Tm ([3]; pH 5, d 0): 62 °C; DSF Tonset ([3]; pH 5, d 0): 45 °C; DSF Tm ([3]; pH 6, 40° C., d 21): 62 °C; DSF Tonset ([3]; pH 6, 40° C., d 21): 46 °C; DSF Tm ([3]; pH 6, d 0): 62 °C; DSF Tonset ([3]; pH 6, d 0): 45 °C; DSF Tm ([3]; pH 8, 40° C., d 21): 66 °C; DSF Tonset ([3]; pH 8, 40° C., d 21): 56 °C; DSF Tm ([3]; pH 8, d 0): 66 °C; DSF Tonset ([3]; pH 8, d 0): 56 °C; Homogeneity cGE % Monomer [4]: 62%"
"Ab0429: IgG1 NNAS; 16H7 VL (N25S, D49S, D50A, D91E, N93E); 16H7 VH (M34V, I83T, D109E); HC SEQ ID NO: 42, LC SEQ ID NO: 49",94,92,77,1,2,2,0,0,1,0,0,1,3,2,0,1,1,1,1,1,"HIC Number of peaks ([2]; pH 8, 40° C., d 21): 1; HIC Number of peaks ([2]; pH 8, d 0): 1; Thermal stability DSF Tm [3]: 62 °C; Thermal stability DSF Tonset [3]: 50 °C; DSF Tm ([3]; pH 5, 40° C., d 21): 60 °C; DSF Tonset ([3]; pH 5, 40° C., d 21): 51 °C; DSF Tm ([3]; pH 5, d 0): 58 °C; DSF Tonset ([3]; pH 5, d 0): 51 °C; DSF Tm ([3]; pH 6, 40° C., d 21): 62 °C; DSF Tonset ([3]; pH 6, 40° C., d 21): 48 °C; DSF Tm ([3]; pH 6, d 0): 62 °C; DSF Tonset ([3]; pH 6, d 0): 50 °C; DSF Tm ([3]; pH 8, 40° C., d 21): 69 °C; DSF Tonset ([3]; pH 8, 40° C., d 21): 55 °C; DSF Tm ([3]; pH 8, d 0): 63 °C; DSF Tonset ([3]; pH 8, d 0): 53 °C; Homogeneity cGE % Monomer [4]: 66%"
"Ab0428: IgG1 NNAS; 16H7 VL (N25S, D49S, D50E, D91E, N93E); 16H7 VH (M34V, I83T, D109E); HC SEQ ID NO: 41, LC SEQ ID NO: 48",94,93,79,1,2,2,0,0,2,1,0,1,3,1,0,1,1,1,1,1,"HIC Number of peaks ([2]; pH 8, 40° C., d 21): 1; HIC Number of peaks ([2]; pH 8, d 0): 1; Thermal stability DSF Tm [3]: 62 °C; Thermal stability DSF Tonset [3]: 48 °C; DSF Tm ([3]; pH 5, 40° C., d 21): 59 °C; DSF Tonset ([3]; pH 5, 40° C., d 21): 51 °C; DSF Tm ([3]; pH 5, d 0): 59 °C; DSF Tonset ([3]; pH 5, d 0): 50 °C; DSF Tm ([3]; pH 6, 40° C., d 21): 62 °C; DSF Tonset ([3]; pH 6, 40° C., d 21): 47 °C; DSF Tm ([3]; pH 6, d 0): 62 °C; DSF Tonset ([3]; pH 6, d 0): 48 °C; DSF Tm ([3]; pH 8, 40° C., d 21): 67 °C; DSF Tonset ([3]; pH 8, 40° C., d 21): 56 °C; DSF Tm ([3]; pH 8, d 0): 68 °C; DSF Tonset ([3]; pH 8, d 0): 54 °C; Homogeneity cGE % Monomer [4]: 71%"
